{"source": "patent US20120171195A1", "key": {"HLA-B*4801 (human)": {"target": "HLA-B*4801 (human) (UniProt P01889)", "assay": "Luminex beads; MAb 1/1600; competitor IgG-free serum"}, "HLA-B*1402 (human)": {"target": "HLA-B*1402 (human)", "assay": "Luminex beads; MAb 1/1600; competitor IgG-free serum"}, "HLA-Cw*1701 (human) [1]": {"target": "HLA-Cw*1701 (human)", "assay": "Luminex beads; MAb 1/1600; competitor IgG-free serum"}, "HLA-B*4002 (human)": {"target": "HLA-B*4002 (human) (UniProt P01889)", "assay": "Luminex beads; MAb 1/1600; competitor IgG-free serum"}, "HLA-Cw*0304 (human) [2]": {"target": "HLA-Cw*0304 (human)", "assay": "Luminex beads; MAb 1/1600; competitor IgG-free serum"}, "HLA-Cw*0303 (human) [3]": {"target": "HLA-Cw*0303 (human)", "assay": "Luminex beads; MAb 1/1600; competitor IgG-free serum"}, "HLA-Cw*1402 (human)": {"target": "HLA-Cw*1402 (human) (UniProt P10321)", "assay": "Luminex beads; MAb 1/1600; competitor IgG-free serum"}, "HLA-Cw*0302 (human)": {"target": "HLA-Cw*0302 (human) (UniProt P10321)", "assay": "Luminex beads; MAb 1/1600; competitor IgG-free serum"}, "HLA-B*1511 (human) [4]": {"target": "HLA-B*1511 (human) (UniProt P01889)", "assay": "Luminex beads; MAb 1/1600; competitor IgG-free serum"}, "HLA-B*4101 (human) [5]": {"target": "HLA-B*4101 (human) (UniProt P01889)", "assay": "Luminex beads; MAb 1/1600; competitor IgG-free serum"}, "HLA-B*1502 (human)": {"target": "HLA-B*1502 (human)", "assay": "Luminex beads; MAb 1/1600; competitor IgG-free serum"}, "HLA-Cw*0801 (human)": {"target": "HLA-Cw*0801 (human) (UniProt P10321)", "assay": "Luminex beads; MAb 1/1600; competitor IgG-free serum"}, "HLA-B*5101 (human) [6]": {"target": "HLA-B*5101 (human)", "assay": "Luminex beads; MAb 1/1600; competitor IgG-free serum"}, "HLA-B*5801 (human) [7]": {"target": "HLA-B*5801 (human)", "assay": "Luminex beads; MAb 1/1600; competitor IgG-free serum"}, "HLA-Cw*0702 (human)": {"target": "HLA-Cw*0702 (human) (UniProt P10321)", "assay": "Luminex beads; MAb 1/1600; competitor IgG-free serum"}, "HLA-B*2708 (human)": {"target": "HLA-B*2708 (human) (UniProt P01889)", "assay": "Luminex beads; MAb 1/1600; competitor IgG-free serum"}, "HLA-Cw*1502 (human)": {"target": "HLA-Cw*1502 (human)", "assay": "Luminex beads; MAb 1/1600; competitor IgG-free serum"}, "HLA-B*4402 (human)": {"target": "HLA-B*4402 (human)", "assay": "Luminex beads; MAb 1/1600; competitor IgG-free serum"}, "HLA-B*5201 (human) [8]": {"target": "HLA-B*5201 (human)", "assay": "Luminex beads; MAb 1/1600; competitor IgG-free serum"}, "HLA-Cw*0304 (human) [9]": {"target": "HLA-Cw*0304 (human)", "assay": "Luminex beads; MAb 1/200; competitor IgG-free serum"}, "HLA-B*1401 (human)": {"target": "HLA-B*1401 (human) (UniProt P01889)", "assay": "Luminex beads; MAb 1/200; competitor IgG-free serum"}, "HLA-Cw*0602 (human) [10]": {"target": "HLA-Cw*0602 (human) (UniProt P10321)", "assay": "Luminex beads; MAb 1/200; competitor IgG-free serum"}, "HLA-B*4006 (human)": {"target": "HLA-B*4006 (human) (UniProt P01889)", "assay": "Luminex beads; MAb 1/200; competitor IgG-free serum"}, "HLA-B*5801 (human) [11]": {"target": "HLA-B*5801 (human)", "assay": "Luminex beads; MAb 1/200; competitor IgG-free serum"}, "HLA-Cw*0501 (human)": {"target": "HLA-Cw*0501 (human)", "assay": "Luminex beads; MAb 1/200; competitor IgG-free serum"}, "HLA-B*5201 (human) [12]": {"target": "HLA-B*5201 (human)", "assay": "Luminex beads; MAb 1/200; competitor IgG-free serum"}, "HLA-Cw*1802 (human) [13]": {"target": "HLA-Cw*1802 (human) (UniProt P10321)", "assay": "Luminex beads; MAb 1/200; competitor IgG-free serum"}, "HLA-Cw*1701 (human) [14]": {"target": "HLA-Cw*1701 (human)", "assay": "Luminex beads; MAb 1/800; PBS only"}, "HLA-Cw*0304 (human) [15]": {"target": "HLA-Cw*0304 (human)", "assay": "Luminex beads; MAb 1/800; PBS only"}, "HLA-B*3701 (human)": {"target": "HLA-B*3701 (human)", "assay": "Luminex beads; MAb 1/800; PBS only"}, "HLA-B*4403 (human)": {"target": "HLA-B*4403 (human)", "assay": "Luminex beads; MAb 1/800; PBS only"}, "HLA-Cw*0303 (human) [16]": {"target": "HLA-Cw*0303 (human)", "assay": "Luminex beads; MAb 1/800; PBS only"}, "HLA-B*1513 (human)": {"target": "HLA-B*1513 (human)", "assay": "Luminex beads; MAb 1/800; PBS only"}, "HLA-B*8201 (human)": {"target": "HLA-B*8201 (human) (UniProt P01889)", "assay": "Luminex beads; MAb 1/800; PBS only"}, "HLA-B*1511 (human) [17]": {"target": "HLA-B*1511 (human) (UniProt P01889)", "assay": "Luminex beads; MAb 1/800; PBS only"}, "HLA-Cw*0602 (human) [18]": {"target": "HLA-Cw*0602 (human) (UniProt P10321)", "assay": "Luminex beads; MAb 1/800; PBS only"}, "HLA-B*4101 (human) [19]": {"target": "HLA-B*4101 (human) (UniProt P01889)", "assay": "Luminex beads; MAb 1/800; PBS only"}, "HLA-B*5101 (human) [20]": {"target": "HLA-B*5101 (human)", "assay": "Luminex beads; MAb 1/800; PBS only"}, "HLA-Cw*1601 (human)": {"target": "HLA-Cw*1601 (human) (UniProt P10321)", "assay": "Luminex beads; MAb 1/800; PBS only"}, "HLA-B*5801 (human) [21]": {"target": "HLA-B*5801 (human)", "assay": "Luminex beads; MAb 1/800; PBS only"}, "HLA-B*5201 (human) [22]": {"target": "HLA-B*5201 (human)", "assay": "Luminex beads; MAb 1/800; PBS only"}, "HLA-Cw*1802 (human) [23]": {"target": "HLA-Cw*1802 (human) (UniProt P10321)", "assay": "Luminex beads; MAb 1/800; PBS only"}, "HLA-A*2403 (A24) (human)": {"target": "HLA-A*2403 (A24) (human)", "assay": "Luminex single-antigen beads; MEM-E/02 1/600; serum Mi114 1/100"}, "HLA-A*3301 (A33) (human)": {"target": "HLA-A*3301 (A33) (human)", "assay": "Luminex single-antigen beads; MEM-E/02 1/600; serum Mi114 1/100"}, "HLA-B*5301 (B53) (human)": {"target": "HLA-B*5301 (B53) (human)", "assay": "Luminex single-antigen beads; MEM-E/02 1/600; serum Mi114 1/100"}, "HLA-B*5801 (B58) (human)": {"target": "HLA-B*5801 (B58) (human)", "assay": "Luminex single-antigen beads; MEM-E/02 1/600; serum Mi114 1/100"}}, "data": [{"substance": "murine monoclonal antibody (MAb) MEM-E/02", "values": [{"measurement": "MFI", "setting": "HLA-B*4801 (human)", "result": 412, "unit": "MFI"}, {"measurement": "MFI", "setting": "HLA-B*1402 (human)", "result": 301, "unit": "MFI"}, {"measurement": "MFI", "setting": "HLA-Cw*1701 (human) [1]", "result": 392, "unit": "MFI"}, {"measurement": "MFI", "setting": "HLA-B*4002 (human)", "result": 403, "unit": "MFI"}, {"measurement": "MFI", "setting": "HLA-Cw*0304 (human) [2]", "result": 370, "unit": "MFI"}, {"measurement": "MFI", "setting": "HLA-Cw*0303 (human) [3]", "result": 332, "unit": "MFI"}, {"measurement": "MFI", "setting": "HLA-Cw*1402 (human)", "result": 432, "unit": "MFI"}, {"measurement": "MFI", "setting": "HLA-Cw*0302 (human)", "result": 335, "unit": "MFI"}, {"measurement": "MFI", "setting": "HLA-B*1511 (human) [4]", "result": 388, "unit": "MFI"}, {"measurement": "MFI", "setting": "HLA-B*4101 (human) [5]", "result": 392, "unit": "MFI"}, {"measurement": "MFI", "setting": "HLA-B*1502 (human)", "result": 350, "unit": "MFI"}, {"measurement": "MFI", "setting": "HLA-Cw*0801 (human)", "result": 865, "unit": "MFI"}, {"measurement": "MFI", "setting": "HLA-B*5101 (human) [6]", "result": 281, "unit": "MFI"}, {"measurement": "MFI", "setting": "HLA-B*5801 (human) [7]", "result": 485, "unit": "MFI"}, {"measurement": "MFI", "setting": "HLA-Cw*0702 (human)", "result": 295, "unit": "MFI"}, {"measurement": "MFI", "setting": "HLA-B*2708 (human)", "result": 272, "unit": "MFI"}, {"measurement": "MFI", "setting": "HLA-Cw*1502 (human)", "result": 317, "unit": "MFI"}, {"measurement": "MFI", "setting": "HLA-B*4402 (human)", "result": 248, "unit": "MFI"}, {"measurement": "MFI", "setting": "HLA-B*5201 (human) [8]", "result": 337, "unit": "MFI"}, {"measurement": "MFI", "setting": "HLA-Cw*0304 (human) [9]", "result": 2030, "unit": "MFI"}, {"measurement": "MFI", "setting": "HLA-B*1401 (human)", "result": 5370, "unit": "MFI"}, {"measurement": "MFI", "setting": "HLA-Cw*0602 (human) [10]", "result": 2190, "unit": "MFI"}, {"measurement": "MFI", "setting": "HLA-B*4006 (human)", "result": 7410, "unit": "MFI"}, {"measurement": "MFI", "setting": "HLA-B*5801 (human) [11]", "result": 3420, "unit": "MFI"}, {"measurement": "MFI", "setting": "HLA-Cw*0501 (human)", "result": 6260, "unit": "MFI"}, {"measurement": "MFI", "setting": "HLA-B*5201 (human) [12]", "result": 2020, "unit": "MFI"}, {"measurement": "MFI", "setting": "HLA-Cw*1802 (human) [13]", "result": 8810, "unit": "MFI"}, {"measurement": "MFI", "setting": "HLA-Cw*1701 (human) [14]", "result": 847, "unit": "MFI"}, {"measurement": "MFI", "setting": "HLA-Cw*0304 (human) [15]", "result": 783, "unit": "MFI"}, {"measurement": "MFI", "setting": "HLA-B*3701 (human)", "result": 993, "unit": "MFI"}, {"measurement": "MFI", "setting": "HLA-B*4403 (human)", "result": 983, "unit": "MFI"}, {"measurement": "MFI", "setting": "HLA-Cw*0303 (human) [16]", "result": 805, "unit": "MFI"}, {"measurement": "MFI", "setting": "HLA-B*1513 (human)", "result": 760, "unit": "MFI"}, {"measurement": "MFI", "setting": "HLA-B*8201 (human)", "result": 614, "unit": "MFI"}, {"measurement": "MFI", "setting": "HLA-B*1511 (human) [17]", "result": 796, "unit": "MFI"}, {"measurement": "MFI", "setting": "HLA-Cw*0602 (human) [18]", "result": 839, "unit": "MFI"}, {"measurement": "MFI", "setting": "HLA-B*4101 (human) [19]", "result": 960, "unit": "MFI"}, {"measurement": "MFI", "setting": "HLA-B*5101 (human) [20]", "result": 515, "unit": "MFI"}, {"measurement": "MFI", "setting": "HLA-Cw*1601 (human)", "result": 752, "unit": "MFI"}, {"measurement": "MFI", "setting": "HLA-B*5801 (human) [21]", "result": 835, "unit": "MFI"}, {"measurement": "MFI", "setting": "HLA-B*5201 (human) [22]", "result": 786, "unit": "MFI"}, {"measurement": "MFI", "setting": "HLA-Cw*1802 (human) [23]", "result": 4090, "unit": "MFI"}]}, {"substance": "murine monoclonal antibody MAb MEM-E/02", "values": [{"measurement": "MFI", "setting": "HLA-A*2403 (A24) (human)", "result": "< 500", "unit": "MFI"}, {"measurement": "MFI", "setting": "HLA-A*3301 (A33) (human)", "result": "< 500", "unit": "MFI"}, {"measurement": "MFI", "setting": "HLA-B*5301 (B53) (human)", "result": "< 500", "unit": "MFI"}, {"measurement": "% inhibition", "setting": "HLA-B*5801 (B58) (human)", "result": 37, "unit": "%"}, {"measurement": "MFI", "setting": "HLA-B*5801 (B58) (human)", "result": 2110, "unit": "MFI"}]}]}
